Test results reported in the RNAGym collection of RNA variant scans (doi:10.1073/pnas.2313332121).

B1: TPR t1 (parent)
chain: GACCAAUCUGCCCUCAGAGCUCGAGAACAUCUUCGGAUGCAGAGGAGGCAGGCUUCGGUGGCGCGAUAGCGCCAACGUCCUCAACCUCCAAUGCAUCCCACCACAUGAUGAUGCCUGAAGAGCCUUGGUUUUUUG

Variants of: B1
Assay: polymerase ribozyme fitness, log enrichment relative to wild type (log ratio); higher = more active; in vitro selection for triplet polymerase activity
Procedure, shortened: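 Mutant libraries were PCR-built and transcribed for each subunit of a heterodimeric triplet polymerase ribozyme and selected for one round in triplicate at −7 °C, frozen, before gel excision of extended constructs and streptavidin-bead capture. Input and output libraries were Illumina-sequenced, keeping genotypes with ≥10 input reads and ≥1 read per output. Fitness is a logarithmic ratio of genotype to wild-type enrichment, in base 2, using inverse-variance-weighted replicate averages.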

Row | Variant | polymerase ribozyme fitness (log ratio)
1 | C15U C56A C72A C79G | -2.96
2 | C12A G65U G110A U131G G135U | -7.22
3 | C76A C98U | -1.53
4 | G58C C72U C123G G128A | 0.86
5 | C49U G77U G113U G122U C124A | -3.66
6 | U14A A105G | -5.21
7 | A37U G44A C101A A111G | -1.68
8 | G39A G60U | 0.0117
9 | C13A C53U C56U U59G | -2.18
10 | C56U G61C C97U A103U C123G | -7.29
11 | A50U U59A | -0.619
12 | C8U G52U G61C C73G U87C U130A | -2.65
13 | C11A C28G C80U | -3.39
14 | C13A C79A | -3.23
15 | A5U A46C C53U U96G C102U | -4.66
16 | A6U G48U C56G C82A | -1.65
17 | C13G U78C | -0.825
18 | G10A C70U C79U C82G G120C G128U | -2.34
19 | A26C G47C C88A C102G A105C C123A | -7.85
20 | G39C C56G C72U | -1.49
21 | C3U A37U A84C | -0.656
22 | G47A C70U G77U G93A | -3.29
23 | C15U G39U G42A A84U | -4.16
24 | U55G C85U | -0.919

Row | Variant | polymerase ribozyme fitness (log ratio)
25 | U78C A90C | -0.796
26 | A46C G60C | -0.75
27 | A18C C56A C73U C86U A90G U106A A108C U112A | -5.34
28 | A43U C88U A95C | -2.51
29 | U7C C34A G35U C56U C94A G110C | -7.29
30 | C80U G113C | -3.19
31 | U55A C88A | 0.08
32 | U96A | -0.895
33 | A27C U54C C70U | -4.38
34 | C12G A46U C49A | -1.36
35 | G61A A118C G120C U126G | -4.35
36 | C11U C85A | -2.42
37 | A24G A29U G45A G47C G77C U129A | -5.43
38 | C3U U78C | 0.0101
39 | G44C C115G | -2.64
40 | C12U G25C C94G G113A | -6.74
41 | A41C U55G A66C G93C | -4.9
42 | A29U U59G U78G G120U G128C U134A | -2.27
43 | U7G C20U A27U G47C G113A | -4.53
44 | G61C C73G U134G G135C | -1.75
45 | C13U C73G G117A C124A | 0.844
46 | C49G | -0.312
47 | C13U A26G G60C G93C | -3.34
48 | C34G C123A | -6.76

Row | Variant | polymerase ribozyme fitness (log ratio)
49 | C12A U54A U92G U132C | -3.79
50 | C88G A95C | -4.58
51 | C8G U33G C99A C101A | -5.4
52 | C12A G36A G61A U92A C123U | -3.77
53 | C72A C88U G93C | -0.854
54 | A68G G110C | -5.66
55 | G71C C85A C101U A105C | -5.59
56 | A2G C13U C53G C72G | -0.413
57 | C12A A46U C62U C98G C115G U132G | -6.35
58 | A16C C124G | 1
59 | C62A U106G A121G | -0.77
60 | C22G G61C | -3.76
61 | U30C C64G C99G C123G | -7.65
62 | C8A A16G C56A C73A | -0.741
63 | G17U A84U | -2.44
64 | U87A G113C U130A | -2.96
65 | C28U G71A | -2.58
66 | A5G G48U G61A U81A C82A G127C | -1.97
67 | A6U G69U G113A | -0.642
68 | A5C C8A C28U U54C A84G | -3.62
69 | C40U U131A | -0.601
70 | G51U C79G U87G | -1.09
71 | C11G G57U G120A | 1.4
72 | C34U G58A C97U C123G | -5.6

Row | Variant | polymerase ribozyme fitness (log ratio)
73 | G10A U21G G44C C80U C123G | -2.04
74 | G10U C56U G117C G122U | -3.32
75 | A6U C8A C12A A41U C79A C89A C94U C101U U116G C123U | -6.77
76 | G52A G122A | -0.494
77 | G93U G120U | -1.4
78 | G17U C49A C56A | -4.3
79 | U7A U14A A37G G69A | -3.91
80 | C49A C123G | 0.461
81 | G39A G117A | -1.8
82 | U7G C49A C70U C85G U130A | -2.22
83 | C56U C72U G120C G127A U134C | -1.5
84 | G61C C101G | -3.98
85 | G42U G63C | -2.22
86 | G48A C62G | -2.29
87 | G47A G71U C104A | -2.85
88 | C31U G60A G107A | -1.03
89 | A16G A50U C53A G63U A100C C114G A121C | -7.46
90 | C53U U109A | -5.04
91 | U9A A16G A18U A43G C70A C72U | -3.21
92 | A5U U7C C8U C11U C86A | -1.5
93 | C13U C34U C88U | -4.18
94 | C70U U81A U116G U125A | -5.57
95 | G39U C88A | -2.37
96 | U7G C8G U106A C115A G127A | 2.21

Row | Variant | polymerase ribozyme fitness (log ratio)
97 | A29G A121U | 0.902
98 | A90G C102A C124A | 0.51
99 | A37C G57U A68G | -3.57
100 | A29U | -1.67
101 | A37U G48U G57U G60U U129C | -1.31
102 | C8U C40G G61A G120A | 1.65
103 | A43C C86U | -2.14
104 | G35C C76G | -4.89
105 | C56G C89U | -0.286
106 | G135C | 0.446
107 | C20U G61C C82A C124G | -1.38
108 | C22U C123A | -3.4
109 | A46U C53U A91U G113U U130A | -4.7
110 | G51A G93U C104U | -3.96
111 | C15A C53U A66U | -4.71
112 | G47U C49G A50C G57U | -1.42
113 | A41U G60U C85A C94U | -1.72
114 | G44A U54A C62A U106A | -3.38
115 | U33G C34A G48U G117C | -7.42
116 | G39A G61A C85U | -0.757
117 | C104A U106A | -2.51
118 | C12U A37C | -0.693
119 | C79A U112A C115A C123G | 0.259
120 | C8G U14G G36U C80U G120A | 1.03

Row | Variant | polymerase ribozyme fitness (log ratio)
121 | U87C U116A A121G | 1.1
122 | C82U C88A G120U G128A | -1.98
123 | G52U U54G | -1.03
124 | A41U A74C | -4.24
125 | C56U G77U C101A | -1.15
126 | G48C G93C | -0.578
127 | U81A A95U C102G A103U G110C U125G | -6.02
128 | A29G G61A C124A | 0.686
129 | U9G C28U G117C U131G | -4.94
130 | G48C A103G | -5.44
131 | C15G G42A G69U C88G | -2.25
132 | G44U G60C U87G | -2.16
133 | A5G G45U A46C G61A U78G C115U | -2.84
134 | G93U G110A G120U | -4.68
135 | C40G C49A G77A C115A | -2.4
136 | U9G U92G C115G U132C | -0.718
137 | A46U C88U | -1.61
138 | A5G C80A | -2.34
139 | A29U G60C | -2.06
140 | G10A C13A G39C U133A | -1.46
141 | G44A A111U | -4.79
142 | C12A G60A C88A C101A C102A | -4.87
143 | C40U C98A A121C | -4.03
144 | C15U A100C | -2.86

Row | Variant | polymerase ribozyme fitness (log ratio)
145 | C56A C79U U109A C123G | -6.51
146 | A26U G45A G77U | -3.48
147 | U9G G120U | 1.06
148 | C13U C94U A95C | -1.52
149 | U9G G36A | -0.196
150 | A37G U55G C72A U129A | -1.52
151 | G39U G57A | -0.803
152 | C76A C94U G117C | -5.54
153 | U54C G77C C104U | -0.638
154 | A18C G60A C89G U106A | -3.6
155 | C12A C15U C73A C79U C86A C115U | -3.16
156 | A5U A27G G60U | -4.01
157 | C20U G42A G71U C80U C82A U112C | -2.53
158 | C76G G122A | -1.36
159 | G51C G127U | -5.2
160 | A41U U125G | -1.97
161 | A26U C53G G60A C80U | -4.36
162 | U9C C12U G39U C70A A111U C124A | -5.75
163 | U7A U9G C73U C79G A84G U96C | -2.27
164 | A6U C70U C88A U129C | -1.84
165 | U54A G60A U78C C89U G120A U126A | -1.78
166 | G42U G60A U87A G113A | -3.78
167 | G71C U132A | -0.602
